Assays:
[1] = target: arrayed peptide library (198 peptide mixtures with a central fixed Ser/Thr phosphorylation site, degenerate flanking positions and a carboxy-terminal biotin tag)
[2] = target: T1, consensus peptide substrate eEF2p (Ac-RKKYKFNEDTERRRFL)
T1 chain: RKKYKFNEDTERRRFL

B1: eEF2 kinase (Elongation Factor 2 Kinase) (protein)
chain: MADEDLIFRLEGVDGGQSPRAGHDGDSDGDSDDEEGYFICPITDDPSSNQNVNSKVNKYYSNLTKSERYSSSGSPANSFHFKEAWKHAIQKAKHMPDPWAEFHLEDIATERATRHRYNAVTGEWLDDEVLIKMASQPFGRGAMRECFRTKKLSNFLHAQQWKGASNYVAKRYIEPVDRDVYFEDVRLQMEAKLWGEEYNRHKPPKQVDIMQMCIIELKDRPGKPLFHLEHYIEGKYIKYNSNSGFVRDDNIRLTPQAFSHFTFERSGHQLIVVDIQGVGDLYTDPQIHTETGTDFGDGNLGVRGMALFFYSHACNRICESMGLAPFDLSPRERDAVNQNTKLLQSAKTILRGTEEKCGSPQVRTLSGSRPPLLRPLSENSGDENMSDVTFDSLPSSPSSATPHSQKLDHLHWPVFSDLDNMASRDHDHLDNHRESENSGDSGYPSEKRGELDDPEPREHGHSYSNRKYESDEDSLGSSGRVCVEKWNLLNSSRLHLPRASAVALEVQRLNALDLEKKIGKSILGKVHLAMVRYHEGGRFCEKGEEWDQESAVFHLEHAANLGELEAIVGLGLMYSQLPHHILADVSLKETEENKTKGFDYLLKAAEAGDRQSMILVARAFDSGQNLSPDRCQDWLEALHWYNTALEMTDCDEGGEYDGMQDEPRYMMLAREAEMLFTGGYGLEKDPQRSGDLYTQAAEAAMEAMKGRLANQYYQKAEEAWAQMEE
phosphorylation of peptide library (radiolabel incorporation) [1]: The kinase was able to efficiently phosphorylate peptides within the library | fold increase in activity as compared to peptide MH-U [2]: 30 to 35 fold increase in activity | phosphorylation at a single substrate concentration (100 µM) [2]: both peptides are efficiently phosphorylated by their respective kinases

Source: US20110020842
